Reference: patent US20250346676A1

Tests used:
[1] = molecular target: human recombinant CD64 (R&D Systems) (human) (UniProt P12314); assay: SPR (Biacore T200); construct captured on Protein A, soluble CD64 as analyte
FcγRIIb = FcγRIIb (UniProt P31994); assay: TR-FRET competition with labeled competitor antibody on cells bearing the receptor
FcγRIIaH131 (human) = FcγRIIaH131 (human) (UniProt P12318); assay: as above
FcγRIIIaV158 = FcγRIIIaV158 (UniProt P08637); assay: as above
Chain of FcγRIIIaV158 (P08637 17-254 F176V limits assumed): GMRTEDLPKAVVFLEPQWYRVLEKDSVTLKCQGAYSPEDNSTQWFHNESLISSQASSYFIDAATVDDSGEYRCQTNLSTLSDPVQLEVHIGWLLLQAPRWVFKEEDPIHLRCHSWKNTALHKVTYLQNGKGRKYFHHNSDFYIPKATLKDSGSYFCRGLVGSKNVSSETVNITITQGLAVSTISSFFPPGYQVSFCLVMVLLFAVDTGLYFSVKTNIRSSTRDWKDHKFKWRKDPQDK

Chain of human recombinant CD64 (R&D Systems) (human) (P12314 16-288 limits assumed): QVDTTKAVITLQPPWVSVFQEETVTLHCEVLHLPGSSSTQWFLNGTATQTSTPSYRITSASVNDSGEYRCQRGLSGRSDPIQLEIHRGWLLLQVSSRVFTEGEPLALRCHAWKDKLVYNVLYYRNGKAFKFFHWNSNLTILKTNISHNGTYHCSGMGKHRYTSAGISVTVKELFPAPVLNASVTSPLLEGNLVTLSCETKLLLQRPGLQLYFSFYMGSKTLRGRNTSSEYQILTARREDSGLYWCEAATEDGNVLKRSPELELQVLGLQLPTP
Chain of FcγRIIb (P31994 43-310 limits assumed): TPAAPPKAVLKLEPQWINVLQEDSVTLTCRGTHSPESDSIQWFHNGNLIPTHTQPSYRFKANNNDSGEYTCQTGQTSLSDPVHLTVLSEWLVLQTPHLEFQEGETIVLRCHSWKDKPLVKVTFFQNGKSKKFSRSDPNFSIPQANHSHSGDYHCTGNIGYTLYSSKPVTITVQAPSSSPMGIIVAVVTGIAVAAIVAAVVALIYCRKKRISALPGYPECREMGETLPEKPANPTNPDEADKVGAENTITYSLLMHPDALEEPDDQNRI
Chain of FcγRIIaH131 (human) (P12318 34-317): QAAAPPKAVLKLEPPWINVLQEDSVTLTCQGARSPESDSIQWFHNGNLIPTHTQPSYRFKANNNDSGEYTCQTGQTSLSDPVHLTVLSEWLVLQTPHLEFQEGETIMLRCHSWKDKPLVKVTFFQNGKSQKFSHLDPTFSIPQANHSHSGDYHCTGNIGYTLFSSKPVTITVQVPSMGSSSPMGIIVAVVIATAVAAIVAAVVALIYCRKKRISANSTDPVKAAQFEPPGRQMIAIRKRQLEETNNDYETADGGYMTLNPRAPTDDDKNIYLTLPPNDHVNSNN

- CD64 Valency by SPR [1]: 1.5
- IC50 (FcγRIIb): 3.29 µM
- IC50 (FcγRIIaH131 (human)): 1.27 µM
- IC50 (FcγRIIIaV158): 0.428 µM
Substance: anti-CD20 monoclonal antibody (CDRs from Gazyva (obinutuzumab))
